In the assay the target is Recombinant human ACE2 protein (carrier free) (human, UniProt Q9BYF1). In words: zeta potential.
Chain of Recombinant human ACE2 protein (carrier free) (Q9BYF1 18-740): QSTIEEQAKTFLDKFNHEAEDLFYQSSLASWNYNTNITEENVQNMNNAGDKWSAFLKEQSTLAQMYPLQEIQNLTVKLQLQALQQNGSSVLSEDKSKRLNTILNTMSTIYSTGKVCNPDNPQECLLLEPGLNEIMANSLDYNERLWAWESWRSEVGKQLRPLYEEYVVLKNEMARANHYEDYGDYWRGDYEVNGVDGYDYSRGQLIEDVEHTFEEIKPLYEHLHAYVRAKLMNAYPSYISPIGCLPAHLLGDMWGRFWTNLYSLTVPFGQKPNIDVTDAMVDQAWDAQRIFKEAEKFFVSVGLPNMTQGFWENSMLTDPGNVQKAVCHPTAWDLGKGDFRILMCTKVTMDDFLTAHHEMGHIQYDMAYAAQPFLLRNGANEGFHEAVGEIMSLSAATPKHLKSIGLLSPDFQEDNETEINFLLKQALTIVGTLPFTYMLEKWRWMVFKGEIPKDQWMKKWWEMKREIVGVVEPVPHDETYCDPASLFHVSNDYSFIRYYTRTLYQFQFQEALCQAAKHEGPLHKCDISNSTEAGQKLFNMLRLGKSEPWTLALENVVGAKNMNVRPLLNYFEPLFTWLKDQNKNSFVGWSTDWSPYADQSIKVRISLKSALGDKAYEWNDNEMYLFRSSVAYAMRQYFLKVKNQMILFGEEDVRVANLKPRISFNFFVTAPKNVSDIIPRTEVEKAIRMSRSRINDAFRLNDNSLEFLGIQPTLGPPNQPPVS

B1: ACE2-binding Ligand peptide amphiphile (C12-VVVGKK-OEG4-GG-DX600) (peptide)
peptide: VVVGKKGGGDYSHCSPLRYYPWWKCTYPDPEGGG
As for B1, the binding result was “binds”.

The record behind these values is PMC9743467 (Matter, 2022).
